Reference: patent US12624096B2, “Anti-tau antibodies and methods of use thereof” (GTInvent Limited, priority 2020, dated 2026)
Entries after “also recorded” stand apart in the source; their conditions may differ.

Tests used:
dGAE = dGAE (Homo sapiens, UniProt P10636); assay: dGAE fibril assembly, circular dichroism; type: biochemical; conditions: 100 μM dGAE + 25 μM antibody (4:1), antibody spectrum subtracted
Description: dGAE protein was diluted into 10 mM phosphate buffer, pH 7.4 (PB) with monoclonal antibody s1D12 at a ratio of 4:1 protein: Ab (100 μM dGAE+25 μM s1D12 and 10 μM dGAE+2.5 μM s1D12) or 1:1 (25 μM dGAE+25 μM s1D12).
As a positive control, dGAE was prepared at a final concentration of 10, 25 or 100 μM in 10 mM PB. Negative controls consisted of dGAE with a non-tau IgG antibody at a ratio of 4:1 (10 μM dGAE+2.5 μM anti-ovalbumin), or antibody alone (25 or 2.5 μM s1D12 and 2.5 μM anti-ovalbumin). Samples were agitated at 700 rpm at 37° C., for 3 days.
For CD, 60 μL sample was placed in a 0.1 mm quartz cuvette and placed into a JASCO spectropolarimeter. 100 μL ThS in 20 mM MOPS buffer was added to 50 μL of each sample to a final concentration of 20 μM, mixed well, incubated at room temperature for 10 minutes then fluorescence intensity measured in a Cary Eclipse spectrophotometer using an excitation wavelength of 440 nm. Baseline readings from 10 mM PB were subtracted from CD and ThS measurements.

htau40 = htau40 (Homo sapiens, UniProt P10636); assay: Biacore X100 SPR of anti-tau mAbs on immobilised htau40; type: binding; conditions: mAb, Table 27, immobilised hT40
Procedure, shortened: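 htau40 amine-coupled to a CM5 chip (~250 RU); mAb injected at 0.78–25 nM in HBS-EP+ at 30 μL/min, 120 s association, 600 s dissociation, glycine pH 1.5 regeneration. Kinetics and affinity from 1:1 binding fit with reference-cell subtraction.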

hT40 = hT40 (Homo sapiens, UniProt P10636); assay: Sandwich ELISA, limits of detection (LoD) of antibody pairs; type: binding; conditions: S1D12 mAb capture
Description: Full length tau (hT40), at 1 μg/ml starting concentration was added to designated wells and double diluted across rest of the plates and left to incubate at R/T for 1 h. A series of detection scAbs with varying epitope recognition properties were added at 10 μg/ml to designated wells (FIG. 22). For colourimetric detection HRP conjugated anti-HuCk secondary antibody was used and the resulting immunoreaction was developed and absorbance at 450 nm measured as described previously. Cut-off point for a positive binding event was an absorbance value of 0.3 following background subtraction. In order to enhance the assay sensitivity, a chemiluminescent detection method was adopted where 50 μL SuperSignal ELISA Femto Substrate (Thermo Scientific) was added to each well following incubation with anti-HuCK HRP antibody and subsequent washing. The luminescence was read using Clariostar Plus microplate reader. A further modification to this protocol was done where various detection scAbs were directly conjugated with HRP and detected using chemiluminescent protocol as before. The lowest levels of detection achieved using different detection scAbs and a comparison of colourimetric and chemiluminescent methods of detection are shown in Table 28
The assay was conducted using chemiluminescent protocol described above.

dGAE aggregates = dGAE aggregates (Homo sapiens, UniProt P10636); assay: Sandwich ELISA on SDS/Triton X-100 treated dGAE aggregates; type: binding
Description: For aggregation, 1000 μL 100 μM dGAE+10 μL 10 mM DTT was added to a ‘LoBind’ microfuge tubes and agitated at 700 RPM/37° C., for 24 hours. Resulting sample centrifuged at 17,000×g/4° C., for 60 min and supernatant discarded to remove left over monomer. Pellet resuspended in half the original volume for future experiments and hereafter referred to as ‘aggregates’. 1 μl of aggregates was added to 1 ml of PBS and SDS was added to a final concentration of 1% (w/v). This was left to incubate on lab bench for 1 h with gentle agitation every 15 minutes. In order to neutralise the SDS effect on ELISA, Triton X-100 added to a final concentration of 3% (v/v) and mixed gently by pipetting to prevent any bubble formation. […] Similarly aggregates treated with only SDS or Triton X-100, untreated aggregates, dGAE monomers treated with only SDS or SDS+Titon X-100 were also added to designated wells as controls. All samples were then double diluted across the plate in final volumes of 100 μl. The final column was left with no protein to act as a blank. This was allowed to stand at room temperature for 1 hour followed by the addition of detection scAb-S1G2 at 10 μg/ml. Anti-HuCk HRP labelled secondary antibody was added as described previously and ELISA data generated was represented using the graph below. In addition, limits of detection (LoD) of various core binding antibody pairing for SDS Triton X-100 treated dGAE aggregates were calculated using the above describe ELISA method and substituting capture mAbs and detection scAbs as shown in Table 30.

Sequence of htau40 (P10636 1-441 isoform P10636-8): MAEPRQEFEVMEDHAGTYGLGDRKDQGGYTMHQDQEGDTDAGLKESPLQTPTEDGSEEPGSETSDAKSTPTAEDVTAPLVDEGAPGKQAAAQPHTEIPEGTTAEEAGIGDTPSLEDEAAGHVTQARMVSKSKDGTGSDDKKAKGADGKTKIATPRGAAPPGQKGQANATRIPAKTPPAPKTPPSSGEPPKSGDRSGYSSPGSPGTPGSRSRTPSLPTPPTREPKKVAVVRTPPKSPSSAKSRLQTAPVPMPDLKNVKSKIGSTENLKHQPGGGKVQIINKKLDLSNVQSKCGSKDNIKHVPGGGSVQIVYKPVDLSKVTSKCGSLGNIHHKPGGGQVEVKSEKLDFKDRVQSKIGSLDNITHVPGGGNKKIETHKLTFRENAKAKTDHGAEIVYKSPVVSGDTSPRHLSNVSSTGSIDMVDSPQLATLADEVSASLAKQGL
Sequence of dGAE (P10636 614-708): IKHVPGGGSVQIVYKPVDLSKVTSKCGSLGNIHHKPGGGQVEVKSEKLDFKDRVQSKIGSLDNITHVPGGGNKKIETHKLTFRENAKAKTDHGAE
Sequence of dGAE aggregates (P10636 614-708): as above
Sequence of hT40 (P10636 1-441 isoform P10636-8): as the sequence (P10636 1-441 isoform P10636-8) above

Row | Molecule | dGAE secondary structure by CD (dGAE) | ka (htau40) [M⁻¹ s⁻¹] | kd (htau40) [s⁻¹] | LoD direct HRP conjugation of detection scAb & chemiluminescence (hT40) [ng/mL] | LoD (dGAE aggregates; S1D12 mAb capture, untreated dGAE agg.) [ng/mL] | LoD (dGAE aggregates; direct immobilisation of dGAE aggregates, +SDS Triton) [ng/mL]
1 | S1D12: anti-tau clone from immunised sheep, SEQ ID NO: 32 (protein, S1D12 amino acid sequence) scFv: QVQLQESGPSLVKPSQTLSLTCTVSGFSLNNNAVGWVRQAPGKVPESLVGCSSDGTCYYNSALKSRLDITRDTSKNQISLSLSSVTTDDAAVYYCTRGHYSIYGYDYLGTIDYWGPGLLVTVSSEGKSSGASGESKVDDQAVLTQPSSVSGSLGQRVSITCSGSSSNVGGGNSVGWYQHLPGSGLKTIIYDTNSRPSGVPDRFSGSRSGNTATLTINSLQAEDEGDYYCVTGDSTTHDDLVGSGTRLTVLG | dGAE cannot assemble into β-sheet rich fibrils; also recorded: indicating that dGAE has not assembled into fibrils | 405800 | 4.093e-05 |  |  | 
2 | S1G2: anti-tau clone, SEQ ID NO: 81 (protein, S1G2 amino acid sequence) scFv: QVQLQESGPSLVKPSQTLSLTCTVSGFSLTSNSVGWVRQAPGKAPEWVAGIDTDGEEGYNPALNSRLSITRDTSKSQVSLSLSSVTSEDTAVYYCGRSYRADGLAYGYVQAIDYWGPGLLVTVSSEGKSSGASGESKVDDQAVVTQPSSVSGSLGQRVSITCSGSFIGISSVGWFQQLPGSGLRTIIVASDGRPSGVPDRFSMSKSGNTATLTISSLQAEDEADYFCGSSDRTPYTGVFGSGTRLTVLG |  | 339800 | 4.748e-05 | 0.04 | 250 | 16
